In assay [1] the target is chloride intracellular channel 1 construct CLIC1C24 (UniProt O00299). Briefly: FRET or BRET. On the technique in general: Bioluminescence resonance energy transfer reports proximity on the nanometre scale.
The target is the same in assay [2]. Briefly: two-colour single-molecule TIRF colocalisation with photobleaching step counting.

Values joined by “and” are separate entries in the source; they are usually repeats but may differ in a detail not shown here. Equal values may be shown once.

For “human αB-crystallin mutant αBc_(C176), fluorescently labelled (natural protein)”, the initial FRET efficiency (E) of the complexes in assay [1] lay in the range of 0.8 to 1. In assay [2], the proportion of CLIC1C24 colocalised with αBc (C176) (maximum, after 4 hr) came to 50%; the αBc subunits per complex (0.25 – 0.5 hr) is 1 subunits and 3 subunits; the αBc subunits per complex (complexes whose abundance increased after 1 hr) is > 6 subunits; the αBc subunits per complex (more complexes at molar ratio 2:1 to 4:1) was > 10 subunits. In addition, the stoichiometry N in assay [2] (scale: αBc per CLIC1) came to 1.

What is called stoichiometry N is the number of molecules, sites or subunits per partner or assembly.

The values are drawn from paper doi:10.1101/2020.02.16.951632.
